Source: the nanobody polyreactivity screen of Harvey et al. (2022)

Assay: yeast display, Sf9 membrane polyspecificity reagent, FACS + sequencing; frameworks hold sequencing errors
How it was run: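 Galactose induction of a Saccharomyces cerevisiae BJ5465 synthetic nanobody display library ran 36–48 hours. The cells were then stained for 1 hour at 4 °C with 10% biotinylated, detergent-solubilized Sf9 membrane reagent, pulled down on streptavidin microbeads and FACS-sorted into low and high (top ~1%) gates on expression and reagent-binding fluorescence. Labels for polyreactivity follow the gate of origin.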

Sequence | polyreactivity (PSR sort gate)
QVQLVESGGGLVQAGGSLRLSCAASGLIFGPYAMGWYRQAPGKERELVAAITSSGGSTYYADSVKGRFTISRDNAKNTVYLQMNSLKPEDTAVYSCAARGSPRYYARYNYWGQGTQVTVSS | low polyreactivity
QVQLVESGGGLVQAGGSLRLSCAASGNIFAIYAMGWYIQAPGKEREFVAAIDWSVASTYYADSVKGRFTISRDNAKNTVYLQMNSLKPEDTAVYYCAAELYGLKYAYYLSYDYWGQGTQVTVSS | high polyreactivity
QVQVVESGGGLVQAGGSLRLSCAASGSIFSGYAMGWYREAPGKERELVAAITSSGGSTYYADSVKGRFTISRDNAKKTVYLQMHSLKPEDTAVYYCAAYRYRYYSYDSWGQGTQVTVSS | high polyreactivity
QVQLVESGGGLVQAGGSLRLSCAASGRIFYYYGMGWYRQAPGKERELVAAISNGGRTYYADSVKGRFTISRDNAKNTVYLQMNSLKPEDTAVYYCAALTRGRGGYDYWGLGTQVTVSS | high polyreactivity
QVQLVESGGGLVQAGGSLRLSCAASGITFRYYAMGWSRQAPGKERELVADITRSGGTTYYADSVKGRFTISRDNAKNTVYLQMNSLKPEDSAVYYCAVDLNWWGWGLLQYDYWGQGTQVTVSS | high polyreactivity
QVQLVESGGGLVQAGGSLRLICAAYGLTFTRNAMGWYRQARGKERELVAGITRGGSTYHADSVKGRFTISRDNAKNTVYLQMNSLKPEYTAVYYCAAGVQYARYQARYYYWGQGTQVTVSS | high polyreactivity
QVQLVESGGGLVQAGGSLRLSCAASGRIFYYYAMGWYRQAPGKERELVAAISTDVGGTFYAESVKGRFTISRANAKNTVYLQMNSLKPEDTAVDYCAVEYLWHGDEHDYWGQGTQVTVSS | high polyreactivity
QVQLVESGGALVQAGGSLRLSCAASGSIFTGYAMGWYRQAPGKERELVAAISSRGGSTYYADSVKGRFTISRDNATNTVYLQMNSLKPEDTAVYYCNAVYSGRFLRRDYWGQGTQVTVSS | high polyreactivity
QVQLVESGGGLVQAGCSLRLSCAASGSIFVNKAMGWYRQAPGKERELVAAISSRSSRTFYADSVKGRFTISRDNSKNTVYLQMNSLKPEDTAVYYCAARRRLAWGQGTQVTVSS | high polyreactivity
QVQLVESGGGLVQAGGSLRLSCAASGFIFYSNAMGWYRQAPGKARELVAAISWGGGRTYYADSVKGRFTISRDNAKNTVYLQMNSLKPEDTAVYYCAADTIVGNGIKFDYWGQGTQVTVSS | high polyreactivity
QVQRLESGGGLVQAGGSLRLSCAASGGTIDWNAMGWYRQAPGKETEFVAAITSSGGSTYYADSVKGRFTISRDNAKNSVYLQMTSLKPEDTAVYECAADFWYYQYPYGGGGYWGQGTQVTVSS | low polyreactivity
QVQLVESGGGLVQAGGSLRLSCAASGSTFGVYAMGWYRQAPAKEMELVARITWSGGSTDYADSVKGRFTISRDNAKNTVYLQMNSLKPEDTAVYYCAARAWWDWYSPRWYYYWGQGTQVTVSS | high polyreactivity
QVQLVESGGGLVQAGGSLRLSCAASGRIFISNAMGWYRQAPGKERELVAAITWIGDRTYYADSVKGRFTISRDNAKITVYLQMNSLKPEDTAVYYCNRVTSRVSGRYSYDYWGQGTQVTVSS | high polyreactivity
QVQLVESGGGLVQAGGSLRLSCAASGLIIPFYAMGWYRQAPGKERELVAAISWSAGSTYYADSVKGRFTISRDNAKNTVYLQMNSLKPEDTAVYYCAATAYYYYDYDYWGQGTQVTVSS | low polyreactivity
QVQLVESGGGLVQAGGSLRLSCAASGSILGTYAMGWYRQAPGKVRELVAAISSSGRTSYADSVKGRFTISRDNAKNTGYLQMNSLKPEDTAVYYCNASNYIVLINDPYAAPWLYDYWGQGTQVTVSS | low polyreactivity
QVQLVESGGGLVQAGGSLRISCAASGSIFGYNTMGWYRQAPGKERELVAAIRGSDSSTYYADSVKGRFTISRDNAKNTVYLQMNSVIPEDTAVYYCAAKYYWGQGTQVTVSS | high polyreactivity
QVQLVESGGGLVQAGGSLRLSCAASGFTFYVNAMGWYRQAPGKERELVAAISSSGTRTYYADSVKGRFTISRDNAKNTVYLQMNSLKPEDTAVYYCAARGQAYSGDRMYYWGQGTQVTVSS | high polyreactivity
